Laboratory results from the supplement of paper PMC10266784.

B1: library; numbered along this chain (parent)
chain: MAAAAAAAAEQQSSNGPVKKSMREKAVERRSVNKEHNSNFKAGYIPIDEDRLHKTGLRGRKGNLAICVIILLFILAVINLIITLVIWAVIRIGPNGCDSMEFHESGLLRFKQVSDMGVIHPLYKSTVGGRRNENLVITGNNQPIVFQQGTTKLSVENNKTSITSDIGMQFFDPRTQNILFSTDYETHEFHLPSGVKSLNVQKASTERITSNATSDLNIKVDGRAIVRGNEGVFIMGKTIEFHMGGNMELKAENSIILNGSVMVSTTRLPSSSSGDQLGSGDWVRYKLCMCADGTLFKVQVTSQNMGCQISDNPCGNTH

Variants of: B1
Test: SGCB cell-surface expression functional score (HA stain, bin4 vs bin1, normalised to synonymous) (log10 ratio); higher = more cell-surface SGCB (functional)
Procedure: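 Deep mutational scan of full-length human SGCB (YFP-SGCB-HA, NNN codon sublibraries A-F) delivered by lentivirus at low MOI into ADG-HEK293 cells stably expressing SGCA, SGCD and SGCG. YFP-positive cells were stained for surface HA on unpermeabilized cells and FACS-sorted into bins. The functional score is log10(frequency in high bin 4 / frequency in low bin 1), normalised per chunk so that synonymous variants have mean 0 and SD 0.5. Scores are the median over codons and over duplicate biological replicates; scores below -0.5 are called non-functional. Scale: negative means deleterious.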

Going from MAAAAAAAAEQQTSNGPVKKSMREKAVERRSVNKEHNSNFKAGYIPIDEDRLHKTGLRGRKGNLAICVIILLFILAVINLIITLVIWAVIRIGPNGCDSMEFHESGLLRFKQVSDMGVIHPLYKSTVGGRRNENLVITGNNQPIVFQQGTTKLSVENNKTSITSDIGMQFFDPRTQNILFSTDYETHEFHLPSGVKSLNVQKASTERITSNATSDLNIKVDGRAIVRGNEGVFIMGKTIEFHMGGNMELKAENSIILNGSVMVSTTRLPSSSSGDQLGSGDWVRYKLCMCADGTLFKVQVTSQNMGCQISDNPCGNTH [S13T] to MAAAAAAAAEQQHSNGPVKKSMREKAVERRSVNKEHNSNFKAGYIPIDEDRLHKTGLRGRKGNLAICVIILLFILAVINLIITLVIWAVIRIGPNGCDSMEFHESGLLRFKQVSDMGVIHPLYKSTVGGRRNENLVITGNNQPIVFQQGTTKLSVENNKTSITSDIGMQFFDPRTQNILFSTDYETHEFHLPSGVKSLNVQKASTERITSNATSDLNIKVDGRAIVRGNEGVFIMGKTIEFHMGGNMELKAENSIILNGSVMVSTTRLPSSSSGDQLGSGDWVRYKLCMCADGTLFKVQVTSQNMGCQISDNPCGNTH [S13H], the “SGCB cell-surface expression functional score (log10)” value rises from -0.13 to 0.13.

Compared with MAAAAAAAAEQQWSNGPVKKSMREKAVERRSVNKEHNSNFKAGYIPIDEDRLHKTGLRGRKGNLAICVIILLFILAVINLIITLVIWAVIRIGPNGCDSMEFHESGLLRFKQVSDMGVIHPLYKSTVGGRRNENLVITGNNQPIVFQQGTTKLSVENNKTSITSDIGMQFFDPRTQNILFSTDYETHEFHLPSGVKSLNVQKASTERITSNATSDLNIKVDGRAIVRGNEGVFIMGKTIEFHMGGNMELKAENSIILNGSVMVSTTRLPSSSSGDQLGSGDWVRYKLCMCADGTLFKVQVTSQNMGCQISDNPCGNTH [S13W], MAAAAAAAAEQQKSNGPVKKSMREKAVERRSVNKEHNSNFKAGYIPIDEDRLHKTGLRGRKGNLAICVIILLFILAVINLIITLVIWAVIRIGPNGCDSMEFHESGLLRFKQVSDMGVIHPLYKSTVGGRRNENLVITGNNQPIVFQQGTTKLSVENNKTSITSDIGMQFFDPRTQNILFSTDYETHEFHLPSGVKSLNVQKASTERITSNATSDLNIKVDGRAIVRGNEGVFIMGKTIEFHMGGNMELKAENSIILNGSVMVSTTRLPSSSSGDQLGSGDWVRYKLCMCADGTLFKVQVTSQNMGCQISDNPCGNTH [S13K] is lower in “SGCB cell-surface expression functional score (log10)” value: 0.8 for the first, 0.46 for the second.

MAAAAAAAAEQQMSNGPVKKSMREKAVERRSVNKEHNSNFKAGYIPIDEDRLHKTGLRGRKGNLAICVIILLFILAVINLIITLVIWAVIRIGPNGCDSMEFHESGLLRFKQVSDMGVIHPLYKSTVGGRRNENLVITGNNQPIVFQQGTTKLSVENNKTSITSDIGMQFFDPRTQNILFSTDYETHEFHLPSGVKSLNVQKASTERITSNATSDLNIKVDGRAIVRGNEGVFIMGKTIEFHMGGNMELKAENSIILNGSVMVSTTRLPSSSSGDQLGSGDWVRYKLCMCADGTLFKVQVTSQNMGCQISDNPCGNTH [S13M] and MAAAAAAAAEQQVSNGPVKKSMREKAVERRSVNKEHNSNFKAGYIPIDEDRLHKTGLRGRKGNLAICVIILLFILAVINLIITLVIWAVIRIGPNGCDSMEFHESGLLRFKQVSDMGVIHPLYKSTVGGRRNENLVITGNNQPIVFQQGTTKLSVENNKTSITSDIGMQFFDPRTQNILFSTDYETHEFHLPSGVKSLNVQKASTERITSNATSDLNIKVDGRAIVRGNEGVFIMGKTIEFHMGGNMELKAENSIILNGSVMVSTTRLPSSSSGDQLGSGDWVRYKLCMCADGTLFKVQVTSQNMGCQISDNPCGNTH [S13V] are within 0.2 log units of each other in “SGCB cell-surface expression functional score (log10)” value: 0.29 for the first, 0.2 for the second.

MAAAAAAAAEQQQSNGPVKKSMREKAVERRSVNKEHNSNFKAGYIPIDEDRLHKTGLRGRKGNLAICVIILLFILAVINLIITLVIWAVIRIGPNGCDSMEFHESGLLRFKQVSDMGVIHPLYKSTVGGRRNENLVITGNNQPIVFQQGTTKLSVENNKTSITSDIGMQFFDPRTQNILFSTDYETHEFHLPSGVKSLNVQKASTERITSNATSDLNIKVDGRAIVRGNEGVFIMGKTIEFHMGGNMELKAENSIILNGSVMVSTTRLPSSSSGDQLGSGDWVRYKLCMCADGTLFKVQVTSQNMGCQISDNPCGNTH [S13Q] and MAAAAAAAAEQQPSNGPVKKSMREKAVERRSVNKEHNSNFKAGYIPIDEDRLHKTGLRGRKGNLAICVIILLFILAVINLIITLVIWAVIRIGPNGCDSMEFHESGLLRFKQVSDMGVIHPLYKSTVGGRRNENLVITGNNQPIVFQQGTTKLSVENNKTSITSDIGMQFFDPRTQNILFSTDYETHEFHLPSGVKSLNVQKASTERITSNATSDLNIKVDGRAIVRGNEGVFIMGKTIEFHMGGNMELKAENSIILNGSVMVSTTRLPSSSSGDQLGSGDWVRYKLCMCADGTLFKVQVTSQNMGCQISDNPCGNTH [S13P] are within 0.2 log units of each other in “SGCB cell-surface expression functional score (log10)” value: 0.29 for the first, 0.2 for the second.

MAAAAAAAAEQQYSNGPVKKSMREKAVERRSVNKEHNSNFKAGYIPIDEDRLHKTGLRGRKGNLAICVIILLFILAVINLIITLVIWAVIRIGPNGCDSMEFHESGLLRFKQVSDMGVIHPLYKSTVGGRRNENLVITGNNQPIVFQQGTTKLSVENNKTSITSDIGMQFFDPRTQNILFSTDYETHEFHLPSGVKSLNVQKASTERITSNATSDLNIKVDGRAIVRGNEGVFIMGKTIEFHMGGNMELKAENSIILNGSVMVSTTRLPSSSSGDQLGSGDWVRYKLCMCADGTLFKVQVTSQNMGCQISDNPCGNTH [S13Y] and MAAAAAAAAEQQLSNGPVKKSMREKAVERRSVNKEHNSNFKAGYIPIDEDRLHKTGLRGRKGNLAICVIILLFILAVINLIITLVIWAVIRIGPNGCDSMEFHESGLLRFKQVSDMGVIHPLYKSTVGGRRNENLVITGNNQPIVFQQGTTKLSVENNKTSITSDIGMQFFDPRTQNILFSTDYETHEFHLPSGVKSLNVQKASTERITSNATSDLNIKVDGRAIVRGNEGVFIMGKTIEFHMGGNMELKAENSIILNGSVMVSTTRLPSSSSGDQLGSGDWVRYKLCMCADGTLFKVQVTSQNMGCQISDNPCGNTH [S13L] are within 0.2 log units of each other in “SGCB cell-surface expression functional score (log10)” value: 0.05 for the first, 0.02 for the second.

MAAAAAAAAEQQRSNGPVKKSMREKAVERRSVNKEHNSNFKAGYIPIDEDRLHKTGLRGRKGNLAICVIILLFILAVINLIITLVIWAVIRIGPNGCDSMEFHESGLLRFKQVSDMGVIHPLYKSTVGGRRNENLVITGNNQPIVFQQGTTKLSVENNKTSITSDIGMQFFDPRTQNILFSTDYETHEFHLPSGVKSLNVQKASTERITSNATSDLNIKVDGRAIVRGNEGVFIMGKTIEFHMGGNMELKAENSIILNGSVMVSTTRLPSSSSGDQLGSGDWVRYKLCMCADGTLFKVQVTSQNMGCQISDNPCGNTH [S13R] and MAAAAAAAAEQQNSNGPVKKSMREKAVERRSVNKEHNSNFKAGYIPIDEDRLHKTGLRGRKGNLAICVIILLFILAVINLIITLVIWAVIRIGPNGCDSMEFHESGLLRFKQVSDMGVIHPLYKSTVGGRRNENLVITGNNQPIVFQQGTTKLSVENNKTSITSDIGMQFFDPRTQNILFSTDYETHEFHLPSGVKSLNVQKASTERITSNATSDLNIKVDGRAIVRGNEGVFIMGKTIEFHMGGNMELKAENSIILNGSVMVSTTRLPSSSSGDQLGSGDWVRYKLCMCADGTLFKVQVTSQNMGCQISDNPCGNTH [S13N] are within 0.2 log units of each other in “SGCB cell-surface expression functional score (log10)” value: -0.07 for the first, 0.08 for the second.

First: MAAAAAAAAEQQISNGPVKKSMREKAVERRSVNKEHNSNFKAGYIPIDEDRLHKTGLRGRKGNLAICVIILLFILAVINLIITLVIWAVIRIGPNGCDSMEFHESGLLRFKQVSDMGVIHPLYKSTVGGRRNENLVITGNNQPIVFQQGTTKLSVENNKTSITSDIGMQFFDPRTQNILFSTDYETHEFHLPSGVKSLNVQKASTERITSNATSDLNIKVDGRAIVRGNEGVFIMGKTIEFHMGGNMELKAENSIILNGSVMVSTTRLPSSSSGDQLGSGDWVRYKLCMCADGTLFKVQVTSQNMGCQISDNPCGNTH [S13I]
Second: MAAAAAAAAEQQSENGPVKKSMREKAVERRSVNKEHNSNFKAGYIPIDEDRLHKTGLRGRKGNLAICVIILLFILAVINLIITLVIWAVIRIGPNGCDSMEFHESGLLRFKQVSDMGVIHPLYKSTVGGRRNENLVITGNNQPIVFQQGTTKLSVENNKTSITSDIGMQFFDPRTQNILFSTDYETHEFHLPSGVKSLNVQKASTERITSNATSDLNIKVDGRAIVRGNEGVFIMGKTIEFHMGGNMELKAENSIILNGSVMVSTTRLPSSSSGDQLGSGDWVRYKLCMCADGTLFKVQVTSQNMGCQISDNPCGNTH [S14E]
The “SGCB cell-surface expression functional score (log10)” value of the first is lower: -0.1 for the first, 0.27 for the second.

MAAAAAAAAEQQSFNGPVKKSMREKAVERRSVNKEHNSNFKAGYIPIDEDRLHKTGLRGRKGNLAICVIILLFILAVINLIITLVIWAVIRIGPNGCDSMEFHESGLLRFKQVSDMGVIHPLYKSTVGGRRNENLVITGNNQPIVFQQGTTKLSVENNKTSITSDIGMQFFDPRTQNILFSTDYETHEFHLPSGVKSLNVQKASTERITSNATSDLNIKVDGRAIVRGNEGVFIMGKTIEFHMGGNMELKAENSIILNGSVMVSTTRLPSSSSGDQLGSGDWVRYKLCMCADGTLFKVQVTSQNMGCQISDNPCGNTH [S14F] and MAAAAAAAAEQQSDNGPVKKSMREKAVERRSVNKEHNSNFKAGYIPIDEDRLHKTGLRGRKGNLAICVIILLFILAVINLIITLVIWAVIRIGPNGCDSMEFHESGLLRFKQVSDMGVIHPLYKSTVGGRRNENLVITGNNQPIVFQQGTTKLSVENNKTSITSDIGMQFFDPRTQNILFSTDYETHEFHLPSGVKSLNVQKASTERITSNATSDLNIKVDGRAIVRGNEGVFIMGKTIEFHMGGNMELKAENSIILNGSVMVSTTRLPSSSSGDQLGSGDWVRYKLCMCADGTLFKVQVTSQNMGCQISDNPCGNTH [S14D] are within 0.2 log units of each other in “SGCB cell-surface expression functional score (log10)” value: 0.19 for the first, 0.3 for the second.

Compared with MAAAAAAAAEQQSCNGPVKKSMREKAVERRSVNKEHNSNFKAGYIPIDEDRLHKTGLRGRKGNLAICVIILLFILAVINLIITLVIWAVIRIGPNGCDSMEFHESGLLRFKQVSDMGVIHPLYKSTVGGRRNENLVITGNNQPIVFQQGTTKLSVENNKTSITSDIGMQFFDPRTQNILFSTDYETHEFHLPSGVKSLNVQKASTERITSNATSDLNIKVDGRAIVRGNEGVFIMGKTIEFHMGGNMELKAENSIILNGSVMVSTTRLPSSSSGDQLGSGDWVRYKLCMCADGTLFKVQVTSQNMGCQISDNPCGNTH [S14C], MAAAAAAAAEQQSGNGPVKKSMREKAVERRSVNKEHNSNFKAGYIPIDEDRLHKTGLRGRKGNLAICVIILLFILAVINLIITLVIWAVIRIGPNGCDSMEFHESGLLRFKQVSDMGVIHPLYKSTVGGRRNENLVITGNNQPIVFQQGTTKLSVENNKTSITSDIGMQFFDPRTQNILFSTDYETHEFHLPSGVKSLNVQKASTERITSNATSDLNIKVDGRAIVRGNEGVFIMGKTIEFHMGGNMELKAENSIILNGSVMVSTTRLPSSSSGDQLGSGDWVRYKLCMCADGTLFKVQVTSQNMGCQISDNPCGNTH [S14G] is higher in “SGCB cell-surface expression functional score (log10)” value: 0.04 for the first, 0.43 for the second.

For MAAAAAAAAEQQSANGPVKKSMREKAVERRSVNKEHNSNFKAGYIPIDEDRLHKTGLRGRKGNLAICVIILLFILAVINLIITLVIWAVIRIGPNGCDSMEFHESGLLRFKQVSDMGVIHPLYKSTVGGRRNENLVITGNNQPIVFQQGTTKLSVENNKTSITSDIGMQFFDPRTQNILFSTDYETHEFHLPSGVKSLNVQKASTERITSNATSDLNIKVDGRAIVRGNEGVFIMGKTIEFHMGGNMELKAENSIILNGSVMVSTTRLPSSSSGDQLGSGDWVRYKLCMCADGTLFKVQVTSQNMGCQISDNPCGNTH [S14A], the “SGCB cell-surface expression functional score (log10)” value was 0.14.
